Results from US20090012275A1 (VIB VZW, published 2009).
Ends that are not written are not given here. * marks the point of attachment. Biotin = O=C1N[C@H]2[C@H](CS[C@H]2CCCCC(=O)*)N1

B1: biotin-ALFWLLVT (peptide)
peptide: Biotin-ALFWLLVT
notes: Synthetic biotinylated peptide (Jerine Peptide Technologies); biotin is part A, the peptide is part B; also called interferor molecule with a specificity for citrate synthase; biotinylated detection peptide
B2: biotin-AFVDAISAVYTA (peptide)
peptide: Biotin-AFVDAISAVYTA
notes: Synthetic biotinylated peptide; also called interferor molecule with a specificity for glucose-6-phosphate dehydrogenase; biotinylated detection peptide

What was measured:
[1] = target: T1, citrate synthase from porcine heart (Roche) (porcine, UniProt P00889 28-464); assay: dot blot: 0.3 mg target protein on nitrocellulose, 10 mM biotinylated peptide, streptavidin-HRP chemiluminescence
T1 construct: Bought protein spotted on nitrocellulose
T1 sequence (looked up): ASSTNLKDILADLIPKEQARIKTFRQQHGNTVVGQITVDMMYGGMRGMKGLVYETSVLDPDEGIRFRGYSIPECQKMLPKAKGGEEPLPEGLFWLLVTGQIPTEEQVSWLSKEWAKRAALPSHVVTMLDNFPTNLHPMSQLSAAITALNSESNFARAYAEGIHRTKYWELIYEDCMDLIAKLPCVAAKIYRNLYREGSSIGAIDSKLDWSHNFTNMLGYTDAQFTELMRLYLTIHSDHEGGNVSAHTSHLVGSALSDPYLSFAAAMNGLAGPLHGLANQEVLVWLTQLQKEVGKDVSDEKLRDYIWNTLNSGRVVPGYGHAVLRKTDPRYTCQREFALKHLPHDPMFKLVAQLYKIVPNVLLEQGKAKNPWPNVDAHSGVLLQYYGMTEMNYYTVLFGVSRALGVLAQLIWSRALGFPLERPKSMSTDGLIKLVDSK

[2] = target: T2, glucose-6-phosphate dehydrogenase from Leuconostoc mesenteroides (Sigma) (Leuconostoc mesenteroides, UniProt P11411 2-486); assay: as above
T2 construct: Bought protein spotted on nitrocellulose
T2 sequence: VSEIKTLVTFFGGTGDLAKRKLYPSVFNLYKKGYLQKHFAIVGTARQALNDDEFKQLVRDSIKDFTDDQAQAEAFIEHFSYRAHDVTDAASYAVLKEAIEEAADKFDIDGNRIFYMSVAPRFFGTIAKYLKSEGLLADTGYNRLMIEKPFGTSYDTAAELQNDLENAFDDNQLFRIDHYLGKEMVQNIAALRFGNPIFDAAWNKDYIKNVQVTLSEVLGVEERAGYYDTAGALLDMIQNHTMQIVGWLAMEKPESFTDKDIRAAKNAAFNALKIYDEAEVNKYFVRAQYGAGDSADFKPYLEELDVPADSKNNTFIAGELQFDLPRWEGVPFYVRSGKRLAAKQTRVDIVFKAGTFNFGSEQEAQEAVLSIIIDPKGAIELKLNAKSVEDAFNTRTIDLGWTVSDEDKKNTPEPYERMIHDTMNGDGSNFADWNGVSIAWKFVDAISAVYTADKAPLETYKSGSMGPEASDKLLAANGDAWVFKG

Binder	binding result [1]	binding result [2]
B1	binds	–
B2	–	binds
